Source: patent publication US20110059889A1 (SYNTONIX PHARMACEUTICALS, published 2011)
Where two headings read alike, the source gives them in different places. Each block holds one binder with its values, some of them ahead of it. Numbered stars: 1 amine (or outer) side, 2 acyl side, 3 side chain; on linkers, the order of the positions; unused ones are H or OH. Bridge positions count the residues as written; N and C are the ends. Square brackets hold non-standard residues; d marks the D form. Ends that are not written are not given here. X4 = (3S)‑3‑amino‑2‑oxo‑1‑piperidine‑acetic acid, O=C1[C@@H](N[*:1])CCCN1CC(=O)[*:2]; 5,5‑bicyclic dipeptide mimic = not defined here; Tyr(Me) = COc1ccc(C[C@H](N[*:1])C(=O)[*:2])cc1; Phe(3-Cl) = N[C@@H](Cc1cccc(Cl)c1)C(=O)O; Dip = N[C@H](C(=O)O)C(c1ccccc1)c1ccccc1; Phe(2-Cl) = N[C@@H](Cc1ccccc1Cl)C(=O)O; His(1-Me) = 1-methylhistidine; NMeL = CN[C@@H](CC(C)C)C(=O)O; Pen = CC(C)(S)[C@H](N)C(=O)O; hCys = N[C@@H](CCS)C(=O)O; Sar = CNCC(=O)O

Experiments:
[1] = target: T1, soluble human FcRn (shFcRn) (human, UniProt P55899 24-297; P61769 21-119); experiment: IgG competition ELISA
T1 construct: Biotinylated for the ELISA, amine-coupled to a CM5 chip for SPR; also called biotinylated shFcRn
Method: (§1) The wells were coated with 100 μl/well of 1 μg/ml biotinylated-shFcRn in Buffer A. The plate was sealed and incubated at 37° C. for 2 hours. Afterwards, the plate was washed with 200 μl/well of Buffer B (Buffer B: 100 mM MES pH 6, 150 mM NaCl, 0.5% BSA IgG-free (Jackson ImmunoResearch, West Grove, Pa.), 0.05% Tween-20). […] To allow for mixing, the plate was rocked for 2 minutes, sealed and incubated at 37° C. for 2 hours. […] The plate was covered, incubated for 30 minutes at room temperature and washed 4 times with 200 μl/well of ice-cold buffer B. SureBlue TMB substrate solution (100 μl/well, KPL, Gaithersburg, Md.) was added and the plate was allowed to incubate at room temperature until color developed, which took 5 to 10 minutes. Once color developed, 100 μl/well of TMB stop solution (KPL, Gaithersburg, Md.) was added and the absorbance was measured at 450 nm. The data was plotted as absorbance vs. peptide concentration to derive the inhibitory concentration 50% (IC₅₀) values.

[2] = target: T1, soluble human FcRn (shFcRn); experiment: IgG competition ELISA; remark: listed apart in the source
Method: as §1

[3] = target: T1, soluble human FcRn (shFcRn); experiment: SPR pH 6
Method: (§2) The following steps were performed to cross-link soluble human or cynomolgus FcRn to the dextran surface of a CM5 sensor chip (Biacore AB, Uppsala, Sweden) by an amine coupling reaction involving 1-ethyl-(3-dimethylaminopropyl)-carbodiimide hydrochloride (EDC) (Biacore AB, Uppsala, Sweden) and N-hydroxysuccinimide (NHS) (Biacore AB, Uppsala, Sweden) as recommended by Biacore (BIAapplications Handbook, version AB, section 4.2, Biacore AB, Uppsala, Sweden). […] Residual sites on the FcRn flow cell were blocked with 1 M ethanolamine hydrochloride pH 8.5 (Biacore AB, Uppsala, Sweden). A control flow cell was blocked with ethanolamine for reference subtraction. For analysis of the monomeric peptides, FcRn was coated to a final density of 4000-5000 response units (RU). For analysis of the peptide dimers, FcRn was coated to a density of 2000-2500 RU. All SPR measurements were performed using a BIACORE 3000 Instrument (Biacore AB Uppsala, Sweden). For measurements done at either pH 6 or pH 7.4, experiments were performed in 50 mM phosphate, 100 mM sodium chloride, 0.01% surfactant P20 (Biacore AB, Uppsala, Sweden).
(§3) Ten, 2-fold dilutions of the peptide were injected over the FcRn-CM5 chip at a rate of 20 μl/min for 2 min. The peptide was dissociated from the chip for 2.5 minutes with buffer. Any remaining peptide was removed from the chip with a 30 second injection of HBS-P buffer (Biacore AB, Uppsala, Sweden) at a rate of 30 μl/min. Sensorgrams were generated and analyzed using BiaEval software version 3.1 (Biacore AB, Uppsala, Sweden). The equilibrium RU observed for each injection was plotted against concentration. The equilibrium KD values were derived by analysis of the plots using the steady state affinity model included in the BiaEval software.

[4] = target: T1, soluble human FcRn (shFcRn); experiment: IgG competition ELISA; remark: listed apart in the source
Method: as §1

[5] = target: T1, soluble human FcRn (shFcRn); experiment: IgG competition ELISA; remark: listed apart in the source
Method: as §1

[6] = target: T1, soluble human FcRn (shFcRn); experiment: SPR pH 7.4
Method: as §2, §3

[7] = target: T1, soluble human FcRn (shFcRn); experiment: IgG competition ELISA; remark: listed apart in the source
Method: as §1

[8] = target: T1, soluble human FcRn (shFcRn); experiment: SPR pH 6; remark: listed apart in the source
Method: as §2, §3

IC50 [1]: 7.3 µM
B1: Peptide No. 193 (peptide)
peptide: RF[Pen]TGHF[X4]LYPC-NH2
modifications: disulfide 3-12; N-terminus assumed
SMILES: CC(C)C[C@@H]1NC(=O)CN2CCC[C@H](NC(=O)[C@H](Cc3ccccc3)NC(=O)[C@H](Cc3c[nH]cn3)NC(=O)CNC(=O)[C@H]([C@@H](C)O)NC(=O)[C@@H](NC(=O)[C@H](Cc3ccccc3)NC(=O)[C@@H](N)CCCNC(=N)N)C(C)(C)SSC[C@@H](C(N)=O)NC(=O)[C@@H]3CCCN3C(=O)[C@H](Cc3ccc(O)cc3)NC1=O)C2=O

IC50 [2]: 100 µM
B2: Peptide No. 56 (peptide)
peptide: QRF[Pen]TGH[Tyr(Me)]GGLYPCNGP-NH2
modifications: disulfide 4-14; N-terminus assumed
SMILES: COc1ccc(C[C@@H]2NC(=O)[C@H](Cc3c[nH]cn3)NC(=O)CNC(=O)[C@H]([C@@H](C)O)NC(=O)[C@@H](NC(=O)[C@H](Cc3ccccc3)NC(=O)[C@H](CCCNC(=N)N)NC(=O)[C@@H](N)CCC(N)=O)C(C)(C)SSC[C@@H](C(=O)N[C@@H](CC(N)=O)C(=O)NCC(=O)N3CCC[C@H]3C(N)=O)NC(=O)[C@@H]3CCCN3C(=O)[C@H](Cc3ccc(O)cc3)NC(=O)[C@H](CC(C)C)NC(=O)CNC(=O)CNC2=O)cc1

IC50 [2]: 4 µM
B3: Peptide No. 221 (peptide)
peptide: RF[Pen]TGH[Phe(2-Cl)]GGLYPC-NH2
modifications: disulfide 3-13; N-terminus assumed
SMILES: CC(C)C[C@@H]1NC(=O)CNC(=O)CNC(=O)[C@H](Cc2ccccc2Cl)NC(=O)[C@H](Cc2c[nH]cn2)NC(=O)CNC(=O)[C@H]([C@@H](C)O)NC(=O)[C@@H](NC(=O)[C@H](Cc2ccccc2)NC(=O)[C@@H](N)CCCNC(=N)N)C(C)(C)SSC[C@@H](C(N)=O)NC(=O)[C@@H]2CCCN2C(=O)[C@H](Cc2ccc(O)cc2)NC1=O

Kd [3]: 0.74 µM
IC50 [4]: 3.4 µM
B4: Peptide No. 138 (peptide)
peptide: QRF[Pen]TG[His(1-Me)]FGGLYPCNGP-NH2
modifications: disulfide 4-14

IC50 [2]: 90 µM
B5: Peptide No. 58 (peptide)
peptide: QRFCTGHXGGLYPCNGP
modifications: Pen 4; 2-pyridylalanine 8; disulfide 4-14; C-terminal amide

IC50 [1]: 0.62 µM
B6: Peptide No. 239 (peptide)
peptide: RFCTGHFXLYPC
modifications: not fully specified; Pen 3; X 8 = 3(S)-3-amino-2-oxo-1-azepine acetic acid in place of Gly-Gly; NMeLeu 9; disulfide 3-12; C-terminal amide

IC50 [2]: 3.7 µM
B7: Peptide No. 222 (peptide)
peptide: RF[Pen]TGH[Phe(3-Cl)]GGLYPC-NH2
modifications: disulfide 3-13; N-terminus assumed
SMILES: CC(C)C[C@@H]1NC(=O)CNC(=O)CNC(=O)[C@H](Cc2cccc(Cl)c2)NC(=O)[C@H](Cc2c[nH]cn2)NC(=O)CNC(=O)[C@H]([C@@H](C)O)NC(=O)[C@@H](NC(=O)[C@H](Cc2ccccc2)NC(=O)[C@@H](N)CCCNC(=N)N)C(C)(C)SSC[C@@H](C(N)=O)NC(=O)[C@@H]2CCCN2C(=O)[C@H](Cc2ccc(O)cc2)NC1=O

Kd [3]: 0.84 µM
IC50 [4]: 1.6 µM
B8: Peptide No. 248 (peptide)
peptide: RFCTGXFGGLYPC
modifications: Pen 3; Thz 6; Sar 9; NMeL 10; disulfide 3-13; C-terminal amide

IC50 [1]: 23 µM
B9: Peptide No. 198 (peptide)
peptide: RF[Pen]TGHF[5,5‑bicyclic dipeptide mimic]LYPC-NH2
modifications: disulfide 3-12; reading uncertain
notes: isomer only in drawing CHEM-US-00084

IC50 [5]: 18 µM
B10: Peptide No. 33 (peptide)
peptide: QRFCTGHFGGLYP[Pen]NGP-NH2
modifications: disulfide 4-14; N-terminus assumed
SMILES: CC(C)C[C@@H]1NC(=O)CNC(=O)CNC(=O)[C@H](Cc2ccccc2)NC(=O)[C@H](Cc2c[nH]cn2)NC(=O)CNC(=O)[C@H]([C@@H](C)O)NC(=O)[C@@H](NC(=O)[C@H](Cc2ccccc2)NC(=O)[C@H](CCCNC(=N)N)NC(=O)[C@@H](N)CCC(N)=O)CSSC(C)(C)[C@@H](C(=O)N[C@@H](CC(N)=O)C(=O)NCC(=O)N2CCC[C@H]2C(N)=O)NC(=O)[C@@H]2CCCN2C(=O)[C@H](Cc2ccc(O)cc2)NC1=O

IC50 [2]: 32 µM
B11: Peptide No. 224 (peptide)
peptide: RF[Pen]TGH[Dip]GGLYPC-NH2
modifications: disulfide 3-13; N-terminus assumed
SMILES: CC(C)C[C@@H]1NC(=O)CNC(=O)CNC(=O)[C@H](C(c2ccccc2)c2ccccc2)NC(=O)[C@H](Cc2c[nH]cn2)NC(=O)CNC(=O)[C@H]([C@@H](C)O)NC(=O)[C@@H](NC(=O)[C@H](Cc2ccccc2)NC(=O)[C@@H](N)CCCNC(=N)N)C(C)(C)SSC[C@@H](C(N)=O)NC(=O)[C@@H]2CCCN2C(=O)[C@H](Cc2ccc(O)cc2)NC1=O

IC50 [5]: 2 µM
B12: Peptide No. 69 (peptide)
peptide: QRF[Pen]TGHFGGLYP[hCys]NGP-NH2
modifications: disulfide 4-14; N-terminus assumed
SMILES: CC(C)C[C@@H]1NC(=O)CNC(=O)CNC(=O)[C@H](Cc2ccccc2)NC(=O)[C@H](Cc2c[nH]cn2)NC(=O)CNC(=O)[C@H]([C@@H](C)O)NC(=O)[C@@H](NC(=O)[C@H](Cc2ccccc2)NC(=O)[C@H](CCCNC(=N)N)NC(=O)[C@@H](N)CCC(N)=O)C(C)(C)SSCC[C@@H](C(=O)N[C@@H](CC(N)=O)C(=O)NCC(=O)N2CCC[C@H]2C(N)=O)NC(=O)[C@@H]2CCCN2C(=O)[C@H](Cc2ccc(O)cc2)NC1=O

Kd [6]: 1.1 µM
IC50 [7]: 1.4 µM
B13: Peptide No. 40 (peptide)
peptide: QRF[Pen]TGHFG[dP]LYPCNGP-NH2
modifications: disulfide 4-14; N-terminus assumed
SMILES: CC(C)C[C@@H]1NC(=O)[C@H]2CCCN2C(=O)CNC(=O)[C@H](Cc2ccccc2)NC(=O)[C@H](Cc2c[nH]cn2)NC(=O)CNC(=O)[C@H]([C@@H](C)O)NC(=O)[C@@H](NC(=O)[C@H](Cc2ccccc2)NC(=O)[C@H](CCCNC(=N)N)NC(=O)[C@@H](N)CCC(N)=O)C(C)(C)SSC[C@@H](C(=O)N[C@@H](CC(N)=O)C(=O)NCC(=O)N2CCC[C@H]2C(N)=O)NC(=O)[C@@H]2CCCN2C(=O)[C@H](Cc2ccc(O)cc2)NC1=O

Kd [6]: 100 µM
Kd [8]: 1.7 µM
B14: Peptide No. 44 (peptide)
peptide: QRF[Pen]TGHFG[dF]LYPCNGP-NH2
modifications: disulfide 4-14; N-terminus assumed
SMILES: CC(C)C[C@@H]1NC(=O)[C@@H](Cc2ccccc2)NC(=O)CNC(=O)[C@H](Cc2ccccc2)NC(=O)[C@H](Cc2c[nH]cn2)NC(=O)CNC(=O)[C@H]([C@@H](C)O)NC(=O)[C@@H](NC(=O)[C@H](Cc2ccccc2)NC(=O)[C@H](CCCNC(=N)N)NC(=O)[C@@H](N)CCC(N)=O)C(C)(C)SSC[C@@H](C(=O)N[C@@H](CC(N)=O)C(=O)NCC(=O)N2CCC[C@H]2C(N)=O)NC(=O)[C@@H]2CCCN2C(=O)[C@H](Cc2ccc(O)cc2)NC1=O

Kd [6]: 41 µM
IC50 [7]: 18 µM
B15: Peptide No. 43 (peptide)
peptide: QRF[Pen]TGHFG[dI]LYPCNGP-NH2
modifications: disulfide 4-14; N-terminus assumed
SMILES: CC[C@@H](C)[C@H]1NC(=O)CNC(=O)[C@H](Cc2ccccc2)NC(=O)[C@H](Cc2c[nH]cn2)NC(=O)CNC(=O)[C@H]([C@@H](C)O)NC(=O)[C@@H](NC(=O)[C@H](Cc2ccccc2)NC(=O)[C@H](CCCNC(=N)N)NC(=O)[C@@H](N)CCC(N)=O)C(C)(C)SSC[C@@H](C(=O)N[C@@H](CC(N)=O)C(=O)NCC(=O)N2CCC[C@H]2C(N)=O)NC(=O)[C@@H]2CCCN2C(=O)[C@H](Cc2ccc(O)cc2)NC(=O)[C@H](CC(C)C)NC1=O

Kd [6]: 20 µM
Kd [8]: 2 µM
B16: Peptide No. 42 (peptide)
peptide: QRF[Pen]TGHFG[dH]LYPCNGP-NH2
modifications: disulfide 4-14; N-terminus assumed
SMILES: CC(C)C[C@@H]1NC(=O)[C@@H](Cc2c[nH]cn2)NC(=O)CNC(=O)[C@H](Cc2ccccc2)NC(=O)[C@H](Cc2c[nH]cn2)NC(=O)CNC(=O)[C@H]([C@@H](C)O)NC(=O)[C@@H](NC(=O)[C@H](Cc2ccccc2)NC(=O)[C@H](CCCNC(=N)N)NC(=O)[C@@H](N)CCC(N)=O)C(C)(C)SSC[C@@H](C(=O)N[C@@H](CC(N)=O)C(=O)NCC(=O)N2CCC[C@H]2C(N)=O)NC(=O)[C@@H]2CCCN2C(=O)[C@H](Cc2ccc(O)cc2)NC1=O

Kd [3]: 9.9 µM
IC50 [4]: > 100 µM
B17: Peptide No. 266 (peptide)
peptide: RF[Pen]TGAFG[Sar][NMeL]YPC-NH2
modifications: disulfide 3-13; N-terminus assumed
SMILES: CC(C)C[C@H]1C(=O)N[C@@H](Cc2ccc(O)cc2)C(=O)N2CCC[C@H]2C(=O)N[C@H](C(N)=O)CSSC(C)(C)[C@H](NC(=O)[C@H](Cc2ccccc2)NC(=O)[C@@H](N)CCCNC(=N)N)C(=O)N[C@@H]([C@@H](C)O)C(=O)NCC(=O)N[C@@H](C)C(=O)N[C@@H](Cc2ccccc2)C(=O)NCC(=O)N(C)CC(=O)N1C
